Laboratory results published in patent publication US12435158.

How the values were obtained:
Test in all cases: SPR Biacore 8k, antibody captured
[1] = biological target: lambda free light chain Sigma
[2] = biological target: lambda Bence Jones protein Lam788a
[3] = biological target: lambda Bence Jones protein Lam893c
[4] = biological target: lambda free light chain MyBio
[5] = biological target: lambda Bence Jones protein Lam134c
[6] = biological target: lambda Bence Jones protein Lam885

Kd [1]: 0.522 nM | Kd [2]: 0.11 nM | Kd [3]: 0.0401 nM | Kd [4]: 0.0437 nM | Kd [5]: 0.0453 nM | Kd [6]: 0.0707 nM
B1: 10B3-VL1 (antibody, human IgG1, kappa, V domains shown)
VH: EVQLVESGGGLVKPGGSLRLSCAASGFTFSSYSMNWVRQAPGKGLEWVSFISSNRNYIYYADSVKGRFTISRDNAKNSLYLQMNSLRAEDTAVYYCASLANWGTYFDYWGQGTLVTVSS
VL: DIQMTQSPSSLSASVGDRVTITCRASQGISSWLAWYQQKPEKAPKSLIYAASSLQSGVPSRFSGSGSGTDFTLTISSLQPEDFATYYCRQYNSYPLTFGGGTKVEIRR
